Laboratory results as given in US20030176674A1 (Human Genome Sciences, published 2003).
Positions count from the first letter of the chain named. Each block holds one binder with its values, some of them ahead of it.

Molecular target: T1, secreted form of VEGF-2 polypeptide (human vascular endothelial growth factor 2) (human, UniProt P49767 112-227, limits assumed)
T1 construct: also called secreted VEGF-2 protein
T1 sequence: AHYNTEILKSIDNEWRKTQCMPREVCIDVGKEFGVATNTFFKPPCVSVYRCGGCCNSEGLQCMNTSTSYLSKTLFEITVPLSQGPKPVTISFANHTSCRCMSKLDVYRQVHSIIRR
Assay: BIAcore (SPR), CM5 chip; antibody captured by goat anti-human Fc; secreted VEGF-2 injected at 2.9-95.2 nM; double reference subtraction
Procedure: A high-density CM5 BIAcore sensor chip was prepared using 10 ug/mL of purified goat anti-human fc antibody as the capture reagent. The optimal pH for immobilization was pH 4 (10 mM sodium acetate). An EDC/NHS complex was applied first to activate the carboxyl groups on the sensor matrix. After the VEGF-2 antibodies were immobilized, the esters were inactivated with ethanolamine. Both a control and an experimental flow cell were used.
The kinetics cycle was performed with the following procedures. The flow rate for the entire binding cycle was 25 uL/minute. The purified VEGF-2 antibody, at 5 ug/mL, was injected only in the experimental flow cell for 1 minute. The secreted form of VEGF-2 was then injected into control and experimental flow cells. The concentration the secreted form of VEGF-2 polypeptide varied for each cycle. The secreted form of VEGF-2 polypeptide (calculated as a 21 kDa dimer) was diluted in HBS-EP from 2 ug/mL (95.2 nM) to-0.06 ug/mL (2.9 nM). Both association and dissociation was 7 minutes. Regeneration was performed using 8 uL of 25 mM HCl for all flow cells.
Evaluation was performed using the double reference subtraction, which subtracts the control flow cell from the experimental and also subtracts a buffer injection.

- Kd: 0.321 nM
- koff: 9.49e-05 s⁻¹
- kon: 295000 M⁻¹ s⁻¹
B1: antibody 1.2.3 (antibody expressed by hybridoma cell line 1.2.3, ATCC Deposit Number PTA-3342) (antibody, human IgG2, V domains shown)
VH: QVQLVESGGGVVQPGRSLRLSCAASGFTFSRYGMHWVRQAPGKGLEWVALIWYDGSNKYYADSVKGRFTISRDNSKNTLYLQMNSLRAEDTAVYYCARDGFGSGCFDYWGQGTLVTVSS
VL: DIVMTQTPLSLSVTPGQPASISCKSSQSLLHSDGKTYLYWHLQKPGQPPQLLIYEVSHRFSGVPDRFSGSGSGTDFTLKISRVEAEDVGLYYCVQSIQLPLTFGGGTKVEIKR
notes: Purified hybridoma antibody from XenoMouse; also called Hybridoma 1.2.3

- Kd: 1.79 nM
- koff: 0.000657 s⁻¹
- kon: 367000 M⁻¹ s⁻¹
B2: antibody 1.5.1 (antibody expressed by hybridoma cell line 1.5.1, ATCC Deposit Number PTA-3341) (antibody, V domains shown)
VH: QVQLVESGGGVVQPGRSLRLSCAASGFTFSRYGMHWVRQAPGKGLEWVAIIWYDGSDKYYADSVKGRFTISRDNSKNTLYLQMSSLRAEDTAVYYCARGTVGASFDYWGQGTLVTVSS
VL: B1 VL with H31N, H41Y, Y54N, H58N, L90V, V94L
notes: Purified hybridoma antibody from XenoMouse; VAX1510 is the IgG1 conversion of 1.5.1; also called Hybridoma 1.5.1
